To fix the notation:
B1: glmS ribozyme (parent)
chain: AUAAAAGCGCCAGAACUACAGAAAUGUAGUUGACGAGGAGGAGGUUUAUCGAAUUUUCGGCGGAUGCCUCCAAA

What all share (conditions): with glucosamine-6-phosphate
In data set [1] the parent is B1. Nature of the data set: kcat; higher = faster cleavage; RNA array. The method in brief:
(§1)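 The measurements used barcoded ribozyme variants on sequenced MiSeq chips, transcribed in situ by E. coli RNA polymerase and tracked at 37 °C with a hybridised Cy3 probe. Glucosamine-6-phosphate, 40 μM to 10 mM in HEPES/KCl/Mg(OAc)2 buffer, was flowed in while tiles were imaged over ~14 h. Baseline-normalised signals, also normalised to non-cleaving reference variants, gave per-tile medians that were fit to one- or two-exponential decays for kobs. kcat and KM resulted from weighted Michaelis–Menten fits across concentrations.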

Data set [2] covers variants of B1. Kind of data set: KM; higher = weaker cofactor use; RNA array. The gist of the method: as §1
The variants in data set [3] derive from B1. Kind of data set: self-cleavage kobs at 40 uM GlcN6P; higher = faster cleavage; RNA array. The method in brief: as §1
In data set [4] the parent is B1. Nature of the data set: self-cleavage kobs at 640 uM GlcN6P; higher = faster cleavage; RNA array. The method in brief:
as §1

Variants of B1 are the subject of data set [5]. Kind of data set: self-cleavage kobs at 2500 uM GlcN6P; higher = faster cleavage; RNA array. The gist of the method: as §1
Data set [6] covers variants of B1. Nature of the data set: self-cleavage kobs at 10000 uM GlcN6P; higher = faster cleavage; RNA array. The method in brief:
as §1

Data set [7] covers variants of B1. Kind of data set: self-cleavage kobs at 160 uM GlcN6P; higher = faster cleavage; RNA array. The gist of the method:
as §1

± gives the standard error. For some of these results: Fewer inactive variants are shown than the library holds. Some results are limits rather than exact numbers.

Data on 16 variants can be found in the supplement of paper PMC7125110.

One may read the kcat as the number of substrate molecules converted per active site and unit of time at saturation. A word on the KM: it is the concentration of substrate that gives half-maximal velocity. For the variant G32A U49G, in data set [1], the kcat came to 5.97e-05 ± 1.4e-06 s⁻¹. Further, the KM in data set [2] amounted to 741 ± 85 µM. The “self-cleavage kobs at 40 uM GlcN6P” value in data set [3] is less than 1e-05 s⁻¹. The “self-cleavage kobs at 640 uM GlcN6P” value in data set [4] was 2.83e-05 ± 1.2e-05 s⁻¹. For the same variant, the “self-cleavage kobs at 2500 uM GlcN6P” value in data set [5] was found to be 4.58e-05 ± 1.1e-05 s⁻¹. For the same variant, in data set [6], the “self-cleavage kobs at 10000 uM GlcN6P” value was 5.56e-05 ± 8.3e-06 s⁻¹.

A14U U55C: the kcat in data set [1] turned out to be 0.00666 ± 0.0014 s⁻¹. In addition, the KM in data set [2] amounted to 1760 ± 500 µM. Moreover, in data set [3], the “self-cleavage kobs at 40 uM GlcN6P” value was 0.000181 ± 2.3e-05 s⁻¹. Also, the “self-cleavage kobs at 160 uM GlcN6P” value in data set [7] is 0.000488 ± 8.3e-05 s⁻¹. The “self-cleavage kobs at 640 uM GlcN6P” value in data set [4] was 0.00161 ± 0.00025 s⁻¹. Moreover, the “self-cleavage kobs at 2500 uM GlcN6P” value in data set [5] was determined as 0.00352 ± 0.00053 s⁻¹. Further, the “self-cleavage kobs at 10000 uM GlcN6P” value in data set [6] was 0.0066 ± 0.001 s⁻¹.

For the variant G38A C58G, the kcat in data set [1] stood at 1.16e-05 ± 3.2e-06 s⁻¹. Also, the “self-cleavage kobs at 160 uM GlcN6P” value in data set [7] is less than 1e-05 s⁻¹. For the same variant, in data set [6], the “self-cleavage kobs at 10000 uM GlcN6P” value is less than 1e-05 s⁻¹.

Regarding C71A, the kcat in data set [1] is 0.0153 ± 0.0014 s⁻¹. Further, in data set [2], the KM was determined as 2490 ± 360 µM. Moreover, in data set [3], the “self-cleavage kobs at 40 uM GlcN6P” value came to 0.00092 ± 0.0004 s⁻¹. For the same variant, in data set [7], the “self-cleavage kobs at 160 uM GlcN6P” value was 0.00104 ± 7.6e-05 s⁻¹. Also, the “self-cleavage kobs at 640 uM GlcN6P” value in data set [4] was 0.00298 ± 0.00014 s⁻¹. Also, in data set [5], the “self-cleavage kobs at 2500 uM GlcN6P” value is 0.00761 ± 0.00039 s⁻¹. Besides, in data set [6], the “self-cleavage kobs at 10000 uM GlcN6P” value was determined as 0.0124 ± 0.0006 s⁻¹.

As to U46G G66A, in data set [1], the kcat turned out to be 0.00746 ± 0.0016 s⁻¹. Also, the KM in data set [2] is 2580 ± 720 µM. For the same variant, in data set [3], the “self-cleavage kobs at 40 uM GlcN6P” value turned out to be 0.000106 ± 1.6e-05 s⁻¹. For the same variant, in data set [4], the “self-cleavage kobs at 640 uM GlcN6P” value came out at 0.00155 ± 0.00019 s⁻¹. For the same variant, the “self-cleavage kobs at 2500 uM GlcN6P” value in data set [5] came out at 0.00502 ± 0.0011 s⁻¹. The “self-cleavage kobs at 10000 uM GlcN6P” value in data set [6] worked out at 0.00541 ± 0.001 s⁻¹.

As for U31A G44A, the kcat in data set [1] came to 0.00023 ± 5.7e-05 s⁻¹. The KM in data set [2] turned out to be 4780 ± 2400 µM. Besides, the “self-cleavage kobs at 2500 uM GlcN6P” value in data set [5] was determined as 9.2e-05 ± 1.5e-05 s⁻¹. Moreover, the “self-cleavage kobs at 10000 uM GlcN6P” value in data set [6] stood at 0.000151 ± 2.1e-05 s⁻¹.

As for A42U C67U, the kcat in data set [1] amounted to 0.000151 ± 1.3e-05 s⁻¹. Moreover, the KM in data set [2] was found to be 1090 ± 300 µM. Also, the “self-cleavage kobs at 640 uM GlcN6P” value in data set [4] turned out to be 5.2e-05 ± 6.3e-06 s⁻¹. Further, the “self-cleavage kobs at 2500 uM GlcN6P” value in data set [5] was 0.000127 ± 1.2e-05 s⁻¹. For the same variant, in data set [6], the “self-cleavage kobs at 10000 uM GlcN6P” value amounted to 0.000131 ± 8.5e-06 s⁻¹.

For the variant A33G U69A, in data set [1], the kcat is 3.15e-05 ± 1.4e-05 s⁻¹. In data set [7], the “self-cleavage kobs at 160 uM GlcN6P” value was determined as 4.13e-05 ± 1.5e-05 s⁻¹.

Regarding U30G G41U, the kcat in data set [1] came to 0.000172 ± 2.3e-05 s⁻¹. In data set [2], the KM was 440 ± 190 µM. Also, the “self-cleavage kobs at 160 uM GlcN6P” value in data set [7] turned out to be 3.73e-05 ± 1.4e-05 s⁻¹. The “self-cleavage kobs at 640 uM GlcN6P” value in data set [4] is 0.000153 ± 3.3e-05 s⁻¹. Moreover, the “self-cleavage kobs at 2500 uM GlcN6P” value in data set [5] stood at 0.000149 ± 2.6e-05 s⁻¹. Further, in data set [6], the “self-cleavage kobs at 10000 uM GlcN6P” value turned out to be 0.000154 ± 2.4e-05 s⁻¹.

In the case of C16G A33G, the kcat in data set [1] was less than 1e-05 s⁻¹. Further, in data set [3], the “self-cleavage kobs at 40 uM GlcN6P” value was less than 1e-05 s⁻¹.

As to A14U U46C, in data set [1], the kcat turned out to be 0.00036 ± 8.4e-05 s⁻¹. The KM in data set [2] is 956 ± 430 µM. Further, the “self-cleavage kobs at 160 uM GlcN6P” value in data set [7] turned out to be 6.29e-05 ± 9.9e-06 s⁻¹. For the same variant, in data set [4], the “self-cleavage kobs at 640 uM GlcN6P” value amounted to 0.000126 ± 1.4e-05 s⁻¹. Besides, in data set [5], the “self-cleavage kobs at 2500 uM GlcN6P” value stood at 0.000395 ± 5.3e-05 s⁻¹. In addition, the “self-cleavage kobs at 10000 uM GlcN6P” value in data set [6] worked out at 0.000305 ± 4e-05 s⁻¹.

For the variant A15U C67A, the kcat in data set [1] is 0.00148 ± 0.00015 s⁻¹. Also, in data set [2], the KM is 1700 ± 250 µM. The “self-cleavage kobs at 40 uM GlcN6P” value in data set [3] is 4.29e-05 ± 1e-05 s⁻¹. For the same variant, in data set [7], the “self-cleavage kobs at 160 uM GlcN6P” value was 0.000119 ± 1.6e-05 s⁻¹. The “self-cleavage kobs at 640 uM GlcN6P” value in data set [4] turned out to be 0.000447 ± 9.2e-05 s⁻¹. Besides, the “self-cleavage kobs at 2500 uM GlcN6P” value in data set [5] worked out at 0.000861 ± 0.00014 s⁻¹. In addition, the “self-cleavage kobs at 10000 uM GlcN6P” value in data set [6] turned out to be 0.00127 ± 0.00019 s⁻¹.

As for G13C C68U, in data set [1], the kcat is less than 1e-05 s⁻¹. Further, in data set [3], the “self-cleavage kobs at 40 uM GlcN6P” value was less than 1e-05 s⁻¹. Besides, the “self-cleavage kobs at 160 uM GlcN6P” value in data set [7] is less than 1e-05 s⁻¹. Moreover, the “self-cleavage kobs at 640 uM GlcN6P” value in data set [4] is less than 1e-05 s⁻¹.

As for A64C C70U, the kcat in data set [1] worked out at 5.98e-05 ± 9.8e-07 s⁻¹. In addition, the KM in data set [2] came to 1590 ± 110 µM. Besides, in data set [3], the “self-cleavage kobs at 40 uM GlcN6P” value was less than 1e-05 s⁻¹. For the same variant, the “self-cleavage kobs at 2500 uM GlcN6P” value in data set [5] stood at 3.63e-05 ± 9.6e-06 s⁻¹. The “self-cleavage kobs at 10000 uM GlcN6P” value in data set [6] is 5.16e-05 ± 6.8e-06 s⁻¹.

Consider A36G U54G, for which, in data set [1], the catalytic constant (kcat) was less than 1e-05 s⁻¹. Further, the “self-cleavage kobs at 40 uM GlcN6P” value in data set [3] is less than 1e-05 s⁻¹.

Regarding C11A U57A, the kcat in data set [1] was less than 1e-05 s⁻¹.
